From US20190345535A1

Key:
Experiment in all cases: cell-based or functional assay
[1] = biological target: GFP^2-Pflu-H3-RLuc2 fusion protein
[2] = biological target: GFP^2-plas1-RLuc2 fusion protein (BRET^2 plasmin sensor)
[3] = biological target: GFP^2-Pflu1-RLuc2 fusion protein (Pflu sensor 1)
[4] = biological target: GFP^2-Pflu3-RLuc2 fusion protein (Pflu sensor 3)
[5] = biological target: GFP^2-Pflu2-RLuc2 fusion protein (Pflu sensor 2)

Chain of bovine plasmin (Sigma) (P06868 104-812 limits assumed): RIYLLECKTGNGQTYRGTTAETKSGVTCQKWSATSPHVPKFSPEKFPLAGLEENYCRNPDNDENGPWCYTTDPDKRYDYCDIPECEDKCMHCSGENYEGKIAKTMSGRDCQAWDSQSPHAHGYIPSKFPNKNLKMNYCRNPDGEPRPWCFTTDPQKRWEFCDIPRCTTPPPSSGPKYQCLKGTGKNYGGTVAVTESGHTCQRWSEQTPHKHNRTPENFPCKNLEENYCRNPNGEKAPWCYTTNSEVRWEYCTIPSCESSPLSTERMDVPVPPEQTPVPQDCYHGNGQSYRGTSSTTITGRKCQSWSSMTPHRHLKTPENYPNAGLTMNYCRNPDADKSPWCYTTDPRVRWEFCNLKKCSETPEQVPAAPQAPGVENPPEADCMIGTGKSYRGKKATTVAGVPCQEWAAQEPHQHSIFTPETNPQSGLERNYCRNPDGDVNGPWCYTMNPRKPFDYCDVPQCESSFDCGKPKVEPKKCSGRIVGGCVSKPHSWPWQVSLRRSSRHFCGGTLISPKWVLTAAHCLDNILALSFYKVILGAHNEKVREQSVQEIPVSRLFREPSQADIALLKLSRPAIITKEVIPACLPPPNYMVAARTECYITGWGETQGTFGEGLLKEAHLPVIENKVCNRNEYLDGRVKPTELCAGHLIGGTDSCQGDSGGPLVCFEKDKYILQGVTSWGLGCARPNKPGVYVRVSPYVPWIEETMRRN
Chain of human plasmin (Sigma) (P00747 97-810 limits assumed): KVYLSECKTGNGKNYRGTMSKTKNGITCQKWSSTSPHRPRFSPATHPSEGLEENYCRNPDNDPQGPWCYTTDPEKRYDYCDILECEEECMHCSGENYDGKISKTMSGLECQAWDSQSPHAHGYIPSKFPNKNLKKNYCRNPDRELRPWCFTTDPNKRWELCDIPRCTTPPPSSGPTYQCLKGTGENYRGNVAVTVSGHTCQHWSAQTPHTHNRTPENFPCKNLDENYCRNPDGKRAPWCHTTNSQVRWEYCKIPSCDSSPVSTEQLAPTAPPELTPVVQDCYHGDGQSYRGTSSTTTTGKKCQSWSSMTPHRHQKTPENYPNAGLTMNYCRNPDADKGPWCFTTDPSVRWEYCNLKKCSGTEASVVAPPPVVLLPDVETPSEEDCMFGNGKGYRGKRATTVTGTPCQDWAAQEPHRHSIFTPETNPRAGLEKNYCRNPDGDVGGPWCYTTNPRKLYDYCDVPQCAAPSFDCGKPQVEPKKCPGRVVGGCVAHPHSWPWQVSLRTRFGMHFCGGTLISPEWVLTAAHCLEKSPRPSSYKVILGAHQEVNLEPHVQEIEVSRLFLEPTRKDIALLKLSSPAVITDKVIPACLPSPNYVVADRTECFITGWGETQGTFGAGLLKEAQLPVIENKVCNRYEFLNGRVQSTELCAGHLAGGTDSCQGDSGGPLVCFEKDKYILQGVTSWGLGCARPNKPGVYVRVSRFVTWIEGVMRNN

bovine plasmin (Sigma) (from UniProt P06868 97-805) (enzyme)
EC50, BRET^2 response, raw milk [1]: 174 nM
EC50, BRET^2 response, 50% full fat UHT milk [2]: 108 nM
EC50, BRET^2 response, 50% full fat UHT milk [3]: 169 nM

crude bacterial protease from Pseudomonas fluorescens strain 65 (enzyme)
EC50, BRET^2 response, 50% full fat UHT milk [4]: 2.3 nM
EC50, BRET^2 response, 50% full fat UHT milk, protease concentration by BSA standard [4]: 26.4 nM
EC50, BRET^2 response, raw milk [1]: 0.5 nM
EC50, BRET^2 response, raw milk, protease concentration by BSA standard [1]: 5.4 nM
EC50, BRET^2 response, 50% full fat UHT milk [2]: 50 nM
EC50, BRET^2 response, 50% full fat UHT milk, protease concentration by BSA standard [2]: 580 nM
EC50, BRET^2 response, raw milk [2]: 1.4 nM
EC50, BRET^2 response, raw milk, protease concentration by BSA standard [2]: 16.2 nM
EC50, BRET^2 response, 50% full fat UHT milk [3]: 0.7 nM
EC50, BRET^2 response, 50% full fat UHT milk, protease concentration by BSA standard [3]: 8.2 nM
EC50, BRET^2 response, 50% raw milk, no pre-treatment, 10 mins. incubation [3]: 0.14 nM
EC50, BRET^2 response, 50% raw milk, no pre-treatment, 2 hrs incubation [3]: 0.0339 nM
EC50, BRET^2 response, 50% raw milk, pre-treatment, 10 mins. incubation [3]: 0.353 nM
EC50, BRET^2 response, 50% raw milk, pre-treatment, 2 hrs incubation [3]: 0.1 nM
EC50, BRET^2 response, raw milk [3]: 0.14 nM
EC50, BRET^2 response, raw milk, protease concentration by BSA standard [3]: 1.63 nM
EC50, BRET^2 response, 50% full fat UHT milk [5]: 2.6 nM
EC50, BRET^2 response, 50% full fat UHT milk, protease concentration by BSA standard [5]: 30.4 nM

crude bacterial protease from Pseudomonas fluorescens strain 117 (enzyme)
EC50, BRET^2 response, raw milk [3]: 0.2 nM
EC50, BRET^2 response, raw milk, protease concentration by BSA standard [3]: 2.6 nM

human plasmin (Sigma) (from UniProt P00747 97-810) (enzyme)
EC50, BRET^2 response, 50% full fat UHT milk [4]: 1280 nM
EC50, BRET^2 response, 50% full fat UHT milk [2]: 5.6 nM
EC50, BRET^2 response, heat treated raw milk, one-step pre-treatment protocol [2]: 24.2 nM
EC50, BRET^2 response, heat treated raw milk, one-step pre-treatment with low power sonication [2]: 29.3 nM
EC50, BRET^2 response, heat treated raw milk, pre-treatment protocol of Rauh et al. (2014) [2]: 19.5 nM
EC50, BRET^2 response, heat treated raw milk, two-step pre-treatment protocol [2]: 16 nM
EC50, BRET^2 response, 50% full fat UHT milk [3]: 124 nM
EC50, BRET^2 response, 50% full fat UHT milk [5]: 926 nM
